The target in one series is T1, MBP-SPO11;TOP6BL (Mus musculus;Mus musculus, UniProt Q9WTK8;J3QMY9 1-396;1-579, |).
T1 sequence 1: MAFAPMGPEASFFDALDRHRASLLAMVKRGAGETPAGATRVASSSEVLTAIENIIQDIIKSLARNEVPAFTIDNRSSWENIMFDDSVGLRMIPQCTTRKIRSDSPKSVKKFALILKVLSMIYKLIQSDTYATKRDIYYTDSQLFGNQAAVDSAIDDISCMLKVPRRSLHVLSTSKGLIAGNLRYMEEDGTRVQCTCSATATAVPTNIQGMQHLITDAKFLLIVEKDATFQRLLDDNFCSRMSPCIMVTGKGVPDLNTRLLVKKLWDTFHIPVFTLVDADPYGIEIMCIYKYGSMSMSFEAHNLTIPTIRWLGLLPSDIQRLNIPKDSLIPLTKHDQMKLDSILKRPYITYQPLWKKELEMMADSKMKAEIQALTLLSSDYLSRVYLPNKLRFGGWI
T1 sequence 2: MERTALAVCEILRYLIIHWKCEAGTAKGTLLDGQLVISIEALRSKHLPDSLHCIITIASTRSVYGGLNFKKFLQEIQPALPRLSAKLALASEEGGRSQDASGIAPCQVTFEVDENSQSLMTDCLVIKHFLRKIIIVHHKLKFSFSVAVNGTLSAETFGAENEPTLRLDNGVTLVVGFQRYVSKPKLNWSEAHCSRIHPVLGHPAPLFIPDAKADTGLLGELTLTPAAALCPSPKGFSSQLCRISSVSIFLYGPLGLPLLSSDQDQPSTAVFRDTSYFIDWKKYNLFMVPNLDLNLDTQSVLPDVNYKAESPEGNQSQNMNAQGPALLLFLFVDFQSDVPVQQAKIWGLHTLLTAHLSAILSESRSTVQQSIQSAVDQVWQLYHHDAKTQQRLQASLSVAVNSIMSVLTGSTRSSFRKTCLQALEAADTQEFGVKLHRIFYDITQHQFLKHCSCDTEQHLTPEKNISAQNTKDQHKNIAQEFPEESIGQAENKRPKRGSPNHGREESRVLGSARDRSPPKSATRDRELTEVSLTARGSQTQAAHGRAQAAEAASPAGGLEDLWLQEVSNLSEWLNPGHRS
The series can be described thus: EMSA; 5 mM EDTA, 0.1 nM DNA; EMSA: 25 mM Tris-HCl pH 7.5, 7.5% glycerol, 50 mM NaCl, 2 mM DTT, 5 mM EDTA, 1 mg/ml BSA, 37 C, 30 min; 0.1 nM labelled hairpin or 100 ng plasmid in 20 µl. The settings on record: protein: recombinant;recombinant; tags: MBP;His-Flag; copies: 1;1; label: 5' 32P; hairpin, 2-nt 5' overhang. Background: A gel shift assay detects complexes by their altered migration in electrophoresis.

Series [1] addresses T2, MBP-tagged Mus musculus SPO11 (Mus musculus, UniProt Q9WTK8 1-396).
T2 construct: SPO11, Mus musculus; expected molecular mass of MBP–SPO11 87.4 kDa; active-site tyrosines Y137 and Y138; also called MBP–SPO11; mouse SPO11; source: baculovirus-infected Sf9 insect cells, purified (amylose, Superdex 200, cation exchange); for the complex co-expressed with TOP6BL and purified (Ni-NTA, amylose, Superdex 200); not shown: MBP, N-terminal, kept
T2 sequence (looked up): T1 sequence 1
The series is described as follows: SEC-MALS; co-expressed and co-purified MBP–SPO11 and His–Flag TOP6BL complex (Ni-NTA, amylose, Superdex 200); Superdex 200 increase 10/300 GL; 25 mM HEPES-NaOH pH 7.5, 500 mM NaCl, 10% glycerol, 5 mM EDTA, 2 mM DTT. To be noted: both partners purified.

In general, stoichiometry N refers to the number of molecules, sites or subunits per partner or assembly.

For the molecule TAGCAATGTAATCGTCTATGACGTTAACGTCATAGACGATTACATTGC (structured_DNA) [cb957 hairpin, 25 bp, 2-nt 5' overhang], the binding result with MBP-SPO11;TOP6BL is listed as “binds”.

B1: His–Flag-tagged Mus musculus TOP6BL (natural protein, UniProt J3QMY9 1-579, looked up)
chain: T1 sequence 2
notes: TOP6BL (topo VIB-like subunit), Mus musculus; also called His–mTOP6BL–Flag; mTOP6BL; not shown: His, N-terminal, kept; Flag, C-terminal, kept
Take B1: the “stoichiometry N” value in series [1] came out at 1.

(Values after article PMC11922746, “SPO11 dimers are sufficient to catalyse DNA double-strand breaks in vitro” (Nature, 2024).)
